Test in all cases: NADPH oxidation, absorbance microplate reader
Data set [1] addresses MdGLYR1 (Malus domestica, UniProt A0A1C8M582). It counts as biochemical. The following applies: 50 μM glyoxylate, 50 μM NADPH, NADP+ varied 0-0.5 mM.
Data set [2] deals with T1, MdGLYR2 (MdGLYR2Δ54) (Malus domestica, UniProt A0A1C8M593).
T1 construct: N-terminal targeting peptide removed (Δ54)
It counts as biochemical. The following applies: 50 μM glyoxylate, 50 μM NADPH, NADP+ varied 0-0.5 mM.

Data set [3] concerns the target T2, AtGLYR2 (AtGLYR2Δ58) (Arabidopsis thaliana, UniProt F4I907).
T2 construct: gene GLYR2
T2 sequence (F4I907 59-358): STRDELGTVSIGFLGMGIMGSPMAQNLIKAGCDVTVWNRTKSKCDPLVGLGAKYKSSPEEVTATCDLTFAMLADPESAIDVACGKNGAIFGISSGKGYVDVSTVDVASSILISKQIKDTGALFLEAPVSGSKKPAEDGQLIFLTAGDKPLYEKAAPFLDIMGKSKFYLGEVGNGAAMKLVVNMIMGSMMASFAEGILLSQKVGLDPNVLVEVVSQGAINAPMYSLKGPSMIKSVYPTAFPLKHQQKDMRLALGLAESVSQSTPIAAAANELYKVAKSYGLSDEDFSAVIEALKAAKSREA
In kind it is biochemical. The following applies: 50 μM NADPH fixed; pH optimum of the enzyme, MES/HEPES/TABS 50 mM each; room temperature. An excerpt:
NADPH oxidation, absorbance microplate reader on AtGLYR2 (AtGLYR2Δ58)

The target in data set [4] is T3, AtGLYR1 (Arabidopsis thaliana, UniProt Q9LSV0).
T3 construct: gene GLYR1
T3 sequence (Q9LSV0 1-289): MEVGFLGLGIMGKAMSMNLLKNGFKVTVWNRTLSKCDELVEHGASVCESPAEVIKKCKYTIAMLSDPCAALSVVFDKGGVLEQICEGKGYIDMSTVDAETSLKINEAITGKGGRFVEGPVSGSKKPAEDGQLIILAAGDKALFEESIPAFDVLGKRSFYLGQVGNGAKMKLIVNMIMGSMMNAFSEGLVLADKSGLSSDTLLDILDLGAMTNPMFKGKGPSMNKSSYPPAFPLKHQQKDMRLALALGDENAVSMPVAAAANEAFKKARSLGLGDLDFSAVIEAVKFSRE
In kind it is biochemical. The following applies: 50 μM NADPH fixed; pH optimum of the enzyme, MES/HEPES/TABS 50 mM each; room temperature. From the text:
NADPH oxidation, absorbance microplate reader on AtGLYR1

Substrate in data set [5]: O=CC(=O)O
It counts as biochemical, Malus domestica. The following applies: 50 μM NADPH fixed; pH optimum of the enzyme, MES/HEPES/TABS 50 mM each; room temperature. An excerpt:
(§1) NADPH oxidation, absorbance microplate reader on MdGLYR2 (MdGLYR2Δ54)

Substrate in data set [6]: O=CCCC(=O)O
In kind it is biochemical, Malus domestica. The following applies: 50 μM NADPH fixed; pH optimum of the enzyme, MES/HEPES/TABS 50 mM each; room temperature.
Excerpt: as §1

Substrate in data set [7]: NC(=O)C1=CN([C@@H]2O[C@H](COP(=O)(O)OP(=O)(O)OC[C@H]3O[C@@H](n4cnc5c(N)ncnc54)[C@H](OP(=O)(O)O)[C@@H]3O)[C@@H](O)[C@H]2O)C=CC1
It counts as biochemical, Malus domestica. The following applies: 50 μM glyoxylate fixed; pH optimum of the enzyme, MES/HEPES/TABS 50 mM each; room temperature; varied: cofactor.
Excerpt: as §1

Substrate in data set [8]: O=CC(=O)O
It counts as biochemical, Malus domestica. The following applies: 50 μM NADPH fixed; pH optimum of the enzyme, MES/HEPES/TABS 50 mM each; room temperature. An excerpt: (§2) NADPH oxidation, absorbance microplate reader on MdGLYR1
This is another data set of the same source.

Substrate in data set [9]: O=CCCC(=O)O
In kind it is biochemical, Malus domestica. The following applies: 50 μM NADPH fixed; pH optimum of the enzyme, MES/HEPES/TABS 50 mM each; room temperature.
Excerpt: as §2
The source holds these as a separate data set.

Substrate in data set [10]: NC(=O)C1=CN([C@@H]2O[C@H](COP(=O)(O)OP(=O)(O)OC[C@H]3O[C@@H](n4cnc5c(N)ncnc54)[C@H](OP(=O)(O)O)[C@@H]3O)[C@@H](O)[C@H]2O)C=CC1
It counts as biochemical, Malus domestica. The following applies: 50 μM glyoxylate fixed; pH optimum of the enzyme, MES/HEPES/TABS 50 mM each; room temperature; varied: cofactor.
Excerpt: as §2
The source holds these as a separate data set.

As for `NC(=O)c1ccc[n+]([C@@H]2O[C@H](COP(=O)(O)OP(=O)(O)OC[C@H]3O[C@@H](n4cnc5c(N)ncnc54)[C@H](OP(=O)(O)O)[C@@H]3O)[C@@H](O)[C@H]2O)c1` [NADP+], the “% inhibition at NADP+/NADPH ratio of 5” value in data set [1] and in [2] was ~ 50% throughout.
For `O=CC(=O)O` [glyoxylate], the Km worked out at 19.3 ± 4 µM in [3] and 23.2 ± 3.2 µM in data set [4].

B1: MdGLYR2 (MdGLYR2Δ54) (Malus domestica) (protein)
chain: ASSKDELPARVGFLGLGIMGSPMAQNLIKSGCDVTVWNRTKSKCDPLISLGAKYKPSPEEVAASCDVTFAMLADPESAVAVALGKHGAANGMSSGKGYVDVSTVDVATSKLIGGNIKATGASFLEAPVSGSKKPAEDGQLIFLTAGDKSLYETVASLLDIMGKSRFYLGEVGNGAAMKLVVNMIMGSMMASFSEGLLLTEKIGLDPKVLVEVVSQGAISAPMYSMKGPSMIQSVYPTAFPLKHQQKDMRLALGLAESVSQSTPIAAAANELYKVAKSHGLSDEDFSAVIEALKPKLKH
notes: N-terminal targeting peptide removed (Δ54)
With B1, in data set [5], the Km was found to be 23.9 ± 1.9 µM, the Vmax worked out at 34.3 µmol/min/mg, the kcat was determined as 19.1 ± 2.1 s⁻¹ and the kcat/Km amounted to 796000 ± 33000 M⁻¹ s⁻¹. Moreover, in data set [6], the Km stood at 6500 ± 327 µM, the Vmax is 18.6 µmol/min/mg, the kcat turned out to be 10.3 ± 1.9 s⁻¹ and the kcat/Km is 1600 ± 200 M⁻¹ s⁻¹. In addition, in data set [7], the Km was 1.8 ± 0.5 µM, the Vmax stood at 28.2 µmol/min/mg, the kcat turned out to be 15.7 ± 1.5 s⁻¹ and the kcat/Km amounted to 1.01e+07 ± 2.28e+06 M⁻¹ s⁻¹.

B2: MdGLYR1 (Malus domestica) (protein)
chain: MEVGFLGLGIMGKAMSMNLLRHGFKVTVWNRTLSKSHELVEHGASVAETPAEVVRKCKYTIAMLSDPSAALSVVFGKDGILEQICAGKSYVDMSTVDADTSSKINEAIKERGGYFLEAPVSGSKKPAEDGQLVILAAGEKALYEEVIPAFNVMGKKSFYLGQVGNGAKMKLVVNMIMGSMMNAFSEGLVLAGRSGLEPSVLLDVLDLGGIANPMFRLKGPTMIQGSHSPAFPLKHQQKDMRLALALGDETATSMPVAAAANEAFKKARSMGLGDLDFSAVYETVKTLEEPSRNSQLR
For the molecule B2, in [8], the Km was 14.1 ± 2.1 µM, the Vmax amounted to 54.7 µmol/min/mg, the kcat was determined as 30.9 ± 3.8 s⁻¹ and the kcat/Km is 2.23e+06 ± 153000 M⁻¹ s⁻¹. In data set [9], the Km is 1133 ± 273 µM, the Vmax is 8.1 µmol/min/mg, the catalytic constant (kcat) turned out to be 4.6 ± 1.6 s⁻¹ and the kcat/Km amounted to 5100 ± 2300 M⁻¹ s⁻¹. Besides, in data set [10], the Km is 3.3 ± 0.5 µM, the Vmax stood at 39.4 µmol/min/mg, the kcat was 22.3 ± 3.4 s⁻¹ and the kcat/Km was 6.8e+06 ± 278000 M⁻¹ s⁻¹.

Values taken from article PMC5558127, “Plant Glyoxylate/Succinic Semialdehyde Reductases: Comparative Biochemical Properties, Function during Chilling Stress, and Subcellular Localization” (Frontiers in Plant Science, 2017).
